Results as given in the supplement of paper PMC9170038.

tested on: MS2 coat protein; experiment: apparent KD of MS2 coat protein; higher = weaker reporter binding; conditions: Eterna round: R107; input ligand: theophylline 20 uM
Summary of the method: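 Apparent KD was obtained for each design as the median of normalised binding-curve fits over its clusters. RNA switches transcribed on-chip from Illumina sequencing clusters were titrated with SNAP-549-labelled MS2 coat protein (twofold steps, 0.7 or 1.5 nM to 3 µM) in 100 mM Tris-HCl pH 7.5, 80 mM KCl, 4 mM MgCl2, without or with constant ligand.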

Row | Sequence | apparent KD of MS2 coat protein [nM]
1 | GUGUUAUGGUCGGCCGCCACUCUGACAUGAGGAUCACCCAUGUUGUACAUGAGGAUCACCCAUGUGAGGACCGGGACACGUGCGA [Exclusion Tryptophan B GF10] | 363
2 | UAUCCACAUGAGGAUCACCCAUGUAGGGAAGGAGCGGUGAUUUCACCAGGUAGGUCGCCUUGCUCAGGGUUGCCGGUGGAAUCGU [Exclusion - Arginine A (Freestyle 34)] | 19.7
3 | GCCUAGCAGCGAAGGAGCGAGGUAAAUAAAUAAAUAAAUAACAAGAGGAUCACCCUUGUUCCUCAGGUAGGUCGCGCUGCUAGGC [SSAB Alternative Aptamer #1 NP+V+V2] | 22.7
4 | UUGUUGUUUGGAAGGAGCGUGGAUGAGUGAGAACAUGAGGAUCACCCAUGUUGUAUGAUACCGCAGGUAGGUCGCCGGGUGGUGG [11.aB] | 39.6
5 | GUACCACAGUCGGCCGCCACUAAGUUGUAUUCCAGCAGGACGAAACAUGAGGAUCACCCAUGUCCUAGGACCGGGACUUCCGUCG [theeternabot_sameState_MS2_Trp_B_41] | 25.2
6 | AAUGUAUGCCACAUGAGGAUCACCCAUGUGCGAGGACCGGUACGGCCGCCACUCGGUCGGUGGUUAAUGAAGAUAUACAAUAAUG [XTryp A #12] | 20.9
7 | CCUAACCGAUCGGCCGCCACUGACCGGUACCUCUUCGAAACCCGCCACAUGAGGAUCACCCAUGUCAGGACCGGGAUUGCACAGG [Inxeus] | 23
8 | UUUGCACAUGAGGAUCACCCAUGUACAGAUACCAGCCUCAUCUACGGCCCUUGGCAGCUGAGACAAUGGUGACAUGAUGGGCUUU [Istein] | 20.4
9 | GGGUGGUAGGCGGCCGCCACUGAUUUUCAUUCCUGGAUGACAUGAGGAUCACCCAUGUUUACGGGCAGGACCGGGCCUGCUGUGG [aaaW] | 68.4
10 | AUAAAUAUAACCGAUACCAGCCUUAUACAUGAGGAUCACCCAUGUUAUGCUUCCUUUCUUGGCCCUUGGCAGCGGAAAUGGGUAA [SSTheo B #13] | 48.4
11 | GAGGAUCAAGUAGAUACCAGCACAUGAGGAUCACCCAUGUAAUGGUGUCCCUCAAGAACGUGCCCUUGGCAGCUACUAUCAAAAU [Enarbeer] | 20.5
12 | ACAUGAGGAUCACCCAUGUCACGGCACGAUACCAGCUGAUGCGGUGGCCCUUGGCAGCGUGACGUUUGGUCCCGCGGAUGACGGG [zzmullin] | 74.3
13 | AUCGUACCUGAUGAUACCAGCAUGUGAUCGUAACAUGAGGAUCACCCAUGUGAUCAGUGAUGCCCUUGGCAGCAUGAUCGGUACA [Same State - Theophylline B (Freestyle 15)] | 35.8
14 | UGUAUGGACUGAAGGAGCGGGUAAUAAACCUGAGGAUCACCCAGGUAAUAGGCGAAAGCCACCCAGGUAGGUCGCAGUCCAUACU | 16.1
15 | UAUCGUCAGACGGCCGCCACUAGAACAUGAGGAUCACCCAUGUACUAGUGGCAUACCUCAUGAACUAGGACCGGGUCUGACGAAU [(Trp1)-(Ms2)-(T)'-(M)'-(Trp2)_Design10] | 11.8
16 | AAUAACAUGAGGAUCACCCAUGUAAAAGAUACCAGAGUGAUGAUCCUCCCUUGGCAGCUUAAAACGCUAUUGAUUACAAUAGCGA [Mat - Same State Theophlline A - Mod of Eli - D4] | 99
17 | UAUCCACAUGAGGAUCACCCAUGUUAGGAAGGAGCGGUGGAUGCACCAGGUAGGUCGCCUAGCUGAGGACUGUCGGUGGAUUCGU [Exclusion - Arginine A (Freestyle 21)] | 92.1
18 | AAGAACAUGAGGAUCACCCAUGUGAUCGUUCGAGGACCGGUACGGCCGCCACUCGGACCUGUGUCCAGGCACGGGCCGACGCGAC [theeternabot_sameState_MS2_Trp_A_21] | 118
19 | CGGGUUAGGGCGGCCGCCACUGUGGCUACGGUACAUGAGGAUCACCCAUGUUUGUGGUUGAUCUACAGGACCGGGCCCUGACACG [Geusrean] | 865

same assay, conditions: Eterna round: R107; input ligand: theophylline 2 mM

Row | Sequence | apparent KD of MS2 coat protein [nM]
20 | GGGAGAUGAAUAGAAUGAGAUGACACAGAAGGAGCGUGAAUUAACACAGGUAGGUCGCUGACAACAUGAGGAUCACCCAUGUAUU [Same State Arginine A GF3] | 19.5
21 | AGUAGACACGCGGCCGCCACUUGAGGAUCACCCAGGUGGUGUGUACUUGAAAACAAGUGCACAUCAAGGACCGGGCGUGUCUACA [Omei Tryp B SS D v2] | 13.9
22 | CGCAACCAACAUGAGGAUCACCCAUGUGAAGGAGCGCCGAAGAAGGCAGGUAGGUCGCACAUGAAUAAAUCAUGUAAAAGGUUGC [MAT - Exclusion Arginine A - Mod of Eli - D19] | 71.2
23 | AUAUAUACAUGAGGAUCACCCAUGUUAUUACGAGGACCGGUACGGCCGCCACUCGAUAGAGUAGAAGUAAAUUUUAAUUCAUGUA [JR_SSTryptoA_Sub007] | 14.4
24 | UGUAUGUGAUUUGAUACCAGACCAGCUGGUGGUGCAUGAGGAUCACCCAUGCAGGUUUGGGUCCCUUGGCAGCAAAUCGCAUACU [SS Theo B #24 Ms17] | 21.6
25 | GCAACAUGAGGAUCACCCAUGUUUACUGAAGGAGCGAGACAGAACUCAGGUAGGUCGCAGACGGCGGAAUCGCCGACGACAUGGG [Exclusion Arginine A GF24] | 27.9
26 | AGAUUCGACACGGCCGCCACUCGUGACGGAUUUCCGAGUGUCGAACAUGAGGAUCACCCAUGUCCGAGGACCGGGUGUUGAGUCU [XTryp B #12] | 55.9
27 | CAGGUUAGGGCGGCCGCCACUGUGGCUACGGUACAUGAGGAUCACCCAUGUUUGUGGUUGAUCUACAGGACCGGGCCCUGACACG [Matidier] | 665
28 | UGUAUGUGAUUUGAUACCAGACCAGCUGGUGUUACAAGAGGAUCACCCUUGUAGGUUUGGGUCCCUUGGCAGCAAAUCGCAUACU [SS Theo B #24 Ms4] | 17.5
29 | UUAAUCAAUAUAGAAAACUAUAUUGCAGAAGGAGCGUGAUAAAACACAGGUAGGUCGCUGAAGGGAACAUGAGGAUCACCCAUGU [AstrosSSArgA#5] | 26.3
30 | ACGAACGCACCUGAGGAACACCCAGGUGAUACCAGCCUGGAAACAGGCCCUUGGCAGCACCUAAAAUAAAGGUAACGUUCGAAUA [TheoAX8 #MicroSwitchBubble #AlternativeMS2] | 180
31 | ACAUGAGGAUCACCCAUGUAUGAUGUUCCUCGAGGACCGGUACGGCCGCCACUCGAACGAGUGGCGCGCGCGCGCGCGCGCGCGC [aUa] | 22.7
32 | AAUACAGCUACGGCCGCCACUUUAACUUGGUAUGGGUCCUUCACAAACAUGAGGAUCACCCAUGUAAGGACCGGGUAGCCUUGUU [theeternabot_exclusion_MS2_Trp_B_35] | 24
33 | AAGUGGCACGGAAGGAGCGAGUUUACCUAGAUAACAUGAGGAUCACCCAUGUAUAAUGGGACUCAGGUAGGUCGCCGCUGUCACU [#30 Same State - Arginine B] | 38.6
34 | GUGUUAUGGUCGGCCGCCACUCUGACAUGAGGAUCACCCAUGUUGUACAUGAGGAUCACCCAUGUGAGGACCGGGACACGUGCGA [Exclusion Tryptophan B GF10] | 476
35 | UAUCCACAUGAGGAUCACCCAUGUAGGGAAGGAGCGGUGAUUUCACCAGGUAGGUCGCCUUGCUCAGGGUUGCCGGUGGAAUCGU [Exclusion - Arginine A (Freestyle 34)] | 13.3
36 | GCCUAGCAGCGAAGGAGCGAGGUAAAUAAAUAAAUAAAUAACAAGAGGAUCACCCUUGUUCCUCAGGUAGGUCGCGCUGCUAGGC [SSAB Alternative Aptamer #1 NP+V+V2] | 18.9
37 | UUGUUGUUUGGAAGGAGCGUGGAUGAGUGAGAACAUGAGGAUCACCCAUGUUGUAUGAUACCGCAGGUAGGUCGCCGGGUGGUGG [11.aB] | 21.5
